Assay results: patent US20070202116A1, “Treatment of micro-organism infection” (priority 2001, published 2007)
Where two headings read alike, the source gives them in different places.

Columns and labels:
[1] = test system: EMRSA strains, vancomycin resistant subpopulations, Linzolid resistant strains; assay: Checkerboard MIC / FIC / FIX of vancomycin and Aurograb (Tables 9, 10); type: cell-based, S. aureus; conditions: for MIC In combination: VAN with Aurograb
Description: In order to determine the Minimum Inhibitory Concentration (MIC), the Fractional Inhibitory Concentration (FIC) and the FIX (fractional inhibitory index), the following was method was used.
The cells were diluted in Isosensitest Broth (Oxoid, UK) to give a final inoculum of […] cells per mL. […] To this was added exogenous Aurograb in the range 0.3-25 μg/ml in a checkerboard formation. A negative control series was also prepared containing Aurograb formulation buffer alone. Cultures were incubated for 48 hours at 37° C.
The minimum inhibitory concentration (MIC) was defined as the lowest concentration of agent at which no bacterial growth occurred and was determined by spectrophotometric evaluation of the lack of turbidity (growth) in culture.
Fractional inhibitory concentrations (FIC) and FIX values were calculated. Synergistic activity between the two agents was defined as an FIX value ≦0.5. Indifferent activity was defined as a value of 0.5-4, and a value of ≧4 defined antagonism.
The MIC (Alone) column indicates the minimum inhibitory concentration of the agent when administered alone. The MIC (In combination) column indicates the minimum inhibitory concentration of each drug when used in combination.

EMRSA-15 [2] = assay: Data Set 1: murine sub-lethal infection, Aurograb alone; type: in vivo, S. aureus
From the text: The murine model of staphylococcal infection is widely used and is routinely used in the assessment of antimicrobial drugs. It is a good predictor of efficacy in infected humans since S. aureus is introduced intravenously to create a bacteraemia, from which the pathogen spreads to other organs, including the kidney, liver and spleen.
Method: 20 female CD-1 mice were given a sub-lethal challenge (1.3×10^7 cfu) of a methicillin-resistant, vancomycin-sensitive strain of S. aureus (EMRSA-15, Typed Hospital Isolate, Central Manchester Healthcare Trust) in 100 μl iv bolus (all iv injections given via the lateral tail vein). 1 hour later, two groups of 10 mice, received, as 100 μl iv bolus: • 1. formulation buffer (Arginine-Urea), as negative control or • 2. Aurograb (2.0 mg/kg) in formulation buffer.
All animals were sacrificed after a further 48 h and viable cfu per gram of organ were determined.

EMRSA-15 [3] = type: in vivo, S. aureus
Description: Methods: 60 female CD-1 mice (22-24 g) were given 1×10^7 cfu of EMRSA-15 as a 100 μl iv bolus.
All mice were terminated at 48 hours for culture of kidney, liver and spleen.
Results: expressed as log cfu per gram of tissue, unless the majority of mice (>5) were cleared (ie organs were culture-negative). N/A=not applicable. (Table 7)

EMRSA-15 [4] = type: in vivo, S. aureus; remark: listed apart in the source
Description: Method: 60 female CD-I mice (22-24 g) were given S. aureus (a fresh clinical isolate of EMRSA-15) at a dose of 8×10^7 cfu in a 100 μl iv bolus.
All mice were terminated at 48 hours for culture of kidney, liver and spleen. Mice fatalities prior to the 48 hour cull were not subject to organ colony counts.

[5] = mice
Description: The pharmacokinetic (PK) characteristics of Aurograb have been studied in mice. A murine model was used because efficacy and dose ranging studies have been performed in this species as were the repeat dose toxicology studies. Mice were given a single high dose as an iv bolus and then examined in duplicate for blood levels and organ distribution. Urine samples were also analysed. Samples were analysed for functional activity, measured by ELISA (blood samples only) and drug concentration (SDS PAGE/immunoblots).

[6] = CD-1 mice, 1.3×10^7 cfu EMRSA-15 iv, Aurograb 2 mg/kg iv 1 hour later, 48 h
[7] = Group 4: Aurograb 2.0 mg/kg alone iv, 48 hours
[8] = Group 5: Aurograb 0.2 mg/kg alone iv, 10 mice
[9] = Group 5: Aurograb 0.2 mg/kg alone iv, 48 hours
[10] = Group 5: Aurograb 2.0 mg/kg alone iv, 48 hours

B1: Aurograb: human genetic recombinant antibody (scFv with histidine tag, SEQ ID NO: 2) binding GrfA, a staphylococcal ABC transporter protein (protein)
scFv: MAKVQLLQSATEVKKPGASVKVSCKAYGYTFTDYGITWVRQAPGQGLEWMGWISAYNGYTNYAQKFQDRITMTTDASTSTAYMELRSLRPDDTAVLYCARDREDASLLRDGHWGQGTLVTVSSGGGGSGGGGSGGGGSGGGGSETTLTQSPGTLSLSPGERATLSCRASQIVSSSYLAWYQQKPGQAPRLLIYGASSRATGIPDRFSGSGSGTDFTLTISKLEPEDFAVYYCQHYGSSSPWTSRPRDQSDIKRAAALEHHHHHH
modifications: histidine tag; human single chain (scFv) recombinant antibody
FIC ([1]; EMRSA strain 1): 0.006
MIC Alone ([1]; EMRSA strain 1): 125 µg/mL
MIC In combination ([1]; EMRSA strain 1): 0.75 µg/mL
FIC ([1]; EMRSA strain 1A): 0.05
MIC Alone ([1]; EMRSA strain 1A): 250 µg/mL
MIC In combination ([1]; EMRSA strain 1A): 12.5 µg/mL
FIC ([1]; EMRSA strain 2): 0.006
MIC Alone ([1]; EMRSA strain 2): 125 µg/mL
MIC In combination ([1]; EMRSA strain 2): 0.75 µg/mL
FIC ([1]; EMRSA strain 2A): 0.05
MIC Alone ([1]; EMRSA strain 2A): 250 µg/mL
MIC In combination ([1]; EMRSA strain 2A): 12.5 µg/mL
FIC ([1]; EMRSA strain 3): 0.012
MIC Alone ([1]; EMRSA strain 3): 250 µg/mL
MIC In combination ([1]; EMRSA strain 3): 3 µg/mL
FIC ([1]; EMRSA strain 4): 0.0026
MIC Alone ([1]; EMRSA strain 4): 125 µg/mL
MIC In combination ([1]; EMRSA strain 4): 0.325 µg/mL
FIC ([1]; EMRSA strain 5): 0.001
MIC Alone ([1]; EMRSA strain 5): 250 µg/mL
MIC In combination ([1]; EMRSA strain 5): 0.325 µg/mL
FIC ([1]; EMRSA strain 6): 0.0026
MIC Alone ([1]; EMRSA strain 6): 125 µg/mL
MIC In combination ([1]; EMRSA strain 6): 0.325 µg/mL
FIC ([1]; EMRSA strain 7): 0.0026
MIC Alone ([1]; EMRSA strain 7): 125 µg/mL
MIC In combination ([1]; EMRSA strain 7): 0.325 µg/mL
FIC ([1]; EMRSA strain 8): 0.0013
MIC Alone ([1]; EMRSA strain 8): 250 µg/mL
MIC In combination ([1]; EMRSA strain 8): 0.325 µg/mL
FIC ([1]; EMRSA strain 8A): 0.05
MIC Alone ([1]; EMRSA strain 8A): 250 µg/mL
MIC In combination ([1]; EMRSA strain 8A): 12.5 µg/mL
FIC ([1]; EMRSA strain 9): 0.006
MIC Alone ([1]; EMRSA strain 9): 125 µg/mL
MIC In combination ([1]; EMRSA strain 9): 0.75 µg/mL
FIC ([1]; EMRSA strain 10): 0.012
MIC Alone ([1]; EMRSA strain 10): 125 µg/mL
MIC In combination ([1]; EMRSA strain 10): 1.5 µg/mL
FIC ([1]; EMRSA strain 11): 0.006
MIC Alone ([1]; EMRSA strain 11): 125 µg/mL
MIC In combination ([1]; EMRSA strain 11): 0.75 µg/mL
FIC ([1]; EMRSA strain 11A): 0.05
MIC Alone ([1]; EMRSA strain 11A): 250 µg/mL
MIC In combination ([1]; EMRSA strain 11A): 12.5 µg/mL
FIC ([1]; EMRSA strain 12): 0.0013
MIC Alone ([1]; EMRSA strain 12): 250 µg/mL
MIC In combination ([1]; EMRSA strain 12): 0.325 µg/mL
FIC ([1]; EMRSA strain 12A): 0.003
MIC Alone ([1]; EMRSA strain 12A): 250 µg/mL
MIC In combination ([1]; EMRSA strain 12A): 0.75 µg/mL
FIC ([1]; EMRSA strain 13): 0.006
MIC Alone ([1]; EMRSA strain 13): 250 µg/mL
MIC In combination ([1]; EMRSA strain 13): 1.5 µg/mL
FIC ([1]; EMRSA strain 14): 0.012
MIC Alone ([1]; EMRSA strain 14): 125 µg/mL
MIC In combination ([1]; EMRSA strain 14): 1.5 µg/mL
FIC ([1]; EMRSA strain 15): 0.012
MIC Alone ([1]; EMRSA strain 15): 125 µg/mL
MIC In combination ([1]; EMRSA strain 15): 1.5 µg/mL
FIC ([1]; EMRSA strain 15A): 0.006
MIC Alone ([1]; EMRSA strain 15A): 250 µg/mL
MIC In combination ([1]; EMRSA strain 15A): 0.75 µg/mL
FIC ([1]; EMRSA strain 16): 0.012
MIC Alone ([1]; EMRSA strain 16): 250 µg/mL
MIC In combination ([1]; EMRSA strain 16): 1.5 µg/mL
FIC ([1]; EMRSA strain 17): 0.006
MIC Alone ([1]; EMRSA strain 17): 250 µg/mL
MIC In combination ([1]; EMRSA strain 17): 0.75 µg/mL
FIC ([1]; NARSA 1 (Hiramatsu)): 0.001
MIC Alone ([1]; NARSA 1 (Hiramatsu)): 250 µg/mL
MIC In combination ([1]; NARSA 1 (Hiramatsu)): 0.325 µg/mL
FIC ([1]; NARSA 2 (Hiramatsu)): 0.001
MIC Alone ([1]; NARSA 2 (Hiramatsu)): 250 µg/mL
MIC In combination ([1]; NARSA 2 (Hiramatsu)): 0.325 µg/mL
FIC ([1]; NARSA 12 (France)): 0.003
MIC Alone ([1]; NARSA 12 (France)): 250 µg/mL
MIC In combination ([1]; NARSA 12 (France)): 0.75 µg/mL
FIC ([1]; NARSA 17 (New York)): 0.001
MIC Alone ([1]; NARSA 17 (New York)): 250 µg/mL
MIC In combination ([1]; NARSA 17 (New York)): 0.325 µg/mL
FIC ([1]; NARSA 119 (Linezolid R)): 0.02
MIC Alone ([1]; NARSA 119 (Linezolid R)): 125 µg/mL
MIC In combination ([1]; NARSA 119 (Linezolid R)): 3 µg/mL
FIC ([1]; NARSA 120 (Linezolid R)): 0.02
MIC Alone ([1]; NARSA 120 (Linezolid R)): 125 µg/mL
MIC In combination ([1]; NARSA 120 (Linezolid R)): 3 µg/mL
FIC ([1]; NARSA 121 (Linezolid R)): 0.02
MIC Alone ([1]; NARSA 121 (Linezolid R)): 125 µg/mL
MIC In combination ([1]; NARSA 121 (Linezolid R)): 3 µg/mL
Kidney Log cfu/g tissue (EMRSA-15 [2]; [6]): 7.20 ± 1.15 Log cfu/g tissue
Liver Log cfu/g tissue (EMRSA-15 [2]; [6]): 3.63 ± 0.68 Log cfu/g tissue
Spleen Log cfu/g tissue (EMRSA-15 [2]; [6]): 3.79 ± 0.82 Log cfu/g tissue
Reduction in viable organisms found in all three organs (EMRSA-15 [2]; kidney, liver and spleen, Aurograb 2 mg/kg vs formulation buffer): 10 fold
Spleen, number of mice cleared (EMRSA-15 [3]; Group 4: Aurograb 2.0 mg/kg alone iv, 10 mice): 4
Kidney Log cfu/g of tissue (EMRSA-15 [3]; [7]): 7.30 ± 1.26 Log cfu/g of tissue
Spleen Log cfu/g of tissue (EMRSA-15 [3]; [7]): 3.54 ± 0.61 Log cfu/g of tissue
Liver, number of mice cleared (EMRSA-15 [3]; [8]): 2
Spleen, number of mice cleared (EMRSA-15 [3]; [8]): 3
Kidney Log cfu/g of tissue (EMRSA-15 [3]; [9]): 7.50 ± 1.53 Log cfu/g of tissue
Liver Log cfu/g of tissue (EMRSA-15 [3]; [9]): 4.28 ± 1.28 Log cfu/g of tissue
Spleen Log cfu/g of tissue (EMRSA-15 [3]; [9]): 3.91 ± 0.87 Log cfu/g of tissue
Mortality (EMRSA-15 [4]; Aurograb alone 2.0 mg/kg, 10 mice, untreated group 7 deaths): 4 deaths
Survivors at 24 h (n = 10) (EMRSA-15 [4]; Group 5: Aurograb 2.0 mg/kg alone iv, 8×10^7 cfu): 6
Kidney Log cfu/g tissue (EMRSA-15 [4]; [10]): 7.87 ± 1 Log cfu/g tissue
Liver Log cfu/g tissue (EMRSA-15 [4]; [10]): 5.18 ± 0.57 Log cfu/g tissue
Spleen Log cfu/g tissue (EMRSA-15 [4]; [10]): 5.53 ± 2.74 Log cfu/g tissue
Time by which all organs were cleared ([5]; lungs, brain, liver, spleen, heart, kidney and blood): ≤ 24 h
Blood levels ([5]; single intravenous bolus injection 10 mg/kg): satisfactory blood levels
